Columns and labels:
[1] = molecular target: human GLP-1 receptor (hGLP-1R) (human, UniProt P43220 24-463); experiment: cell-based or functional assay
[2] = molecular target: T1, human gastric inhibitory polypeptide receptor (hGIPR) (human) (UniProt P48546); experiment: cell-based or functional assay
T1 sequence: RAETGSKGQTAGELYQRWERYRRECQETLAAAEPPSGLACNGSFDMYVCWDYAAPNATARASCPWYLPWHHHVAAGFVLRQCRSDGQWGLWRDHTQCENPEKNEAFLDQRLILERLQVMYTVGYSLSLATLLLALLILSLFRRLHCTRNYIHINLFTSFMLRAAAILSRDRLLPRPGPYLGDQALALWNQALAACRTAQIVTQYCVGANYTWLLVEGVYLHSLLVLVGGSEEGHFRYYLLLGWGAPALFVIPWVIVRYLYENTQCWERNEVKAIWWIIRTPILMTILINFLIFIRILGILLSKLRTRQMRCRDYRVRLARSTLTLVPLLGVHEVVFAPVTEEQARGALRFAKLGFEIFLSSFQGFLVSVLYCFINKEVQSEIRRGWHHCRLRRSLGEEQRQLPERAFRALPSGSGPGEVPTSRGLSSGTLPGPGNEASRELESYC

[3] = molecular target: T2, human gastric inhibitory polypeptide receptor (hGIPR) (human, UniProt P48546 22-466); experiment: cell-based or functional assay
T2 sequence: T1 sequence

[4] = molecular target: T2, human gastric inhibitory polypeptide …; experiment: FACS on CHO-DHFR-hGIPR cells
Experimental: PBS containing 10 mM EDTA was used to detach the CHO-DHFR-hGIPR cells and 10⁵ cells/tube was distributed into 1.5 mL EP tubes, and the supernatant was removed after centrifugation. The negative control sample was resuspended with a loading buffer (PBS, 2% FBS). For the positive control, 200 μL GIPR antibody solution of specific concentration was added to the cells and incubated at room temperature; after incubation, the cells were then centrifuged at 1500 rpm to remove the supernatant, washed with a FACS loading buffer and centrifuged again. The cells were resuspended with addition (200 μL/well) of a FITC labeled goat anti-mouse fluorescent antibody or PE labeled goat anti-human fluorescent antibody at 1:50 dilution and incubated at room temperature for 30 min in the dark. The supernatant was removed after centrifugation, and cells were washed with FACS loading buffer, centrifuged again and resuspended with the loading buffer for FACS analysis. The recombinant anti-hGIPR functional antibody specifically binds to GIPR-expressing CHO-DHFR-GIPR cells.

[5] = molecular target: T3, monkey GIP receptor (maGIPR) (monkey, UniProt P48546 22-466 (human entry), limits assumed); experiment: cell-based or functional assay
T3 chain: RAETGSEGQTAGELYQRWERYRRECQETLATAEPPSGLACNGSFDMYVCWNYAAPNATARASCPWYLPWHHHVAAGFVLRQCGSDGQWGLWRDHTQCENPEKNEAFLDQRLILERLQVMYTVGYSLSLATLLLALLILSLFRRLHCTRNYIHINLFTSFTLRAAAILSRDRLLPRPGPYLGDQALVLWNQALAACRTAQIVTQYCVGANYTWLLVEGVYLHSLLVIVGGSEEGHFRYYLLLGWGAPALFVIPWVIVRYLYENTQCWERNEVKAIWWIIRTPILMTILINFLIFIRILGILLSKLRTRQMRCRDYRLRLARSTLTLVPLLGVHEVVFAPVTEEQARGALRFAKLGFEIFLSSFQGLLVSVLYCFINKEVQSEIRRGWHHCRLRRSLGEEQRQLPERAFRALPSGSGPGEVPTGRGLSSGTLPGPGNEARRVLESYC

B1: GIPR antibody/GLP-1 fusion protein GLP-1-Linker-L7H6 (protein, part only; not given: heavy and light constant regions, not shown: a dimerising Fc or GST)
light, part: HGEGTFTSDVSSYLEGQAAKEFIAWLVKGGGGGSGGGGSGGGGSDIVLTQSPASLAVSPGQRATITCRASQSVNTAVYSYIHWYQQKPGQPPKLLIKYASNLESGVPARFSGSGSGTDFTLTINPVEANDAANYYCQHSFDFPYTFGGGTKVEIKR
heavy, part: QVQLQESGPGLVKPSQTLSLTCTVSGYSITSDYAWNWIRQPPGKGVEWMGYISYRGIATYKPSLKSRITISRDTSKNQFSLKLSSVTAADTAVYYCVRGEYGPGNFDFWGQGTTVTVSS
Work on B1 yielded a reporter gene assay (CRE-Luciferase) in CHO-DHFR- cells co-expressing hGLP1R: activation (EC50) [1] of 0.04 nM and a direct cAMP assay: inhibition of GIP-activated hGIPR signaling in CHO-DHFR cells stably expressing human GIPR (IC50) [2] of 14.9 nM.

B2: hGIPR antibody L7H6 (antibody, V domains shown)
VH: B1 heavy, part
VL: DIVLTQSPASLAVSPGQRATITCRASQSVNTAVYSYIHWYQQKPGQPPKLLIKYASNLESGVPARFSGSGSGTDFTLTINPVEANDAANYYCQHSFDFPYTFGGGTKVEIKR
With B2 the “direct cAMP assay: inhibition of GIP-activated hGIPR signaling in CHO-DHFR cells stably expressing human GIPR (IC50)” value [3] was 7.6 nM.

B3: hGIPR antibody L10H8 (antibody, V domains shown)
VH: QVQLQQSGAEVKKPGSSVKVSCKASGGTFSSYAISWVRQAPGQGLEWMGGIIPTFGTANYAQKFQGRVTITADESTSTAYMELSSLRSEDTAVYYCAQGPIVGAPTDYWGKGTLVTVSS
VL: SYVLTQPPSASGTPGQRVAISCSGSNSNIGSNTVHWYQQLPGAAPKLLIYSNNQRPSGVPDRFSGSNSGTSASLAISRLQSEDEADYYCAAWDDSLNGVVFGGGTKVTVL
notes: Recombinantly expressed whole antibody; also called recombinant anti-hGIPR functional antibody
B3: binds [4].

B4: GIPR antibody/GLP-1 fusion protein GLP-1-Linker-V1W5 (other)
light: HGEGTFTSDVSSYLEGQAAKEFIAWLVKGGGGGSGGGGSGGGGSDIVLTQSPASLAVSPGQRATITCRASQSVNTAVYSYIHWYQQKPGQPPKLLIKYASNLESGVPARFSGSGSGTDFTLTINPVEANDAANYYCQHSFDFPYTFGGGTKVEIKRTVAAPSVFIFPPSDEQLKSGTASVVCLLNNFYPREAKVQWKVDNALQSGNSQESVTEQDSKDSTYSLSSTLTLSKADYEKHKVYACEVTHQGLSSPVTKSFNRGEC
heavy: QVQLQESGPGLVKPSQTLSLTCTVSGYSITSDYAWNWIRQPPGKGVEWMGYISYRGIATYKPSLKSRITISRDTSKNQFSLKLSSVTAADTAVYYCVRGEYGPGNFDFWGQGTTVTVSSASTKGPSVFPLAPCSRSTSESTAALGCLVKDYFPEPVTVSWNSGALTSGVHTFPAVLQSSGLYSLSSVVTVPSSSLGTKTYTCNVDHKPSNTKVDKRVESKYGPPCPPCPAPEAAGGPSVFLFPPKPKDTLYITREPEVTCVVVDVSQEDPEVQFNWYVDGVEVHNAKTKPREEQFNSTYRVVSVLTVLHQDWLNGKEYKCKVSNKGLPSSIEKTISKAKGQPREPQVYTLPPSQEEMTKNQVSLTCLVKGFYPSDIAVEWESNGQPENNYKTTPPVLDSDGSFFLYSRLTVDKSRWQEGNVFSCSVMHEALHNHYTQKSLSLSLG
In the case of B4, the “direct cAMP assay: inhibition of GIP-activated monkey GIPR signaling (IC50)” value [5] is reported as 4.3 nM, the “reporter gene assay (CRE-Luciferase) in CHO-DHFR- cells co-expressing hGLP-1R: activation (EC50)” value [1] is reported as 17.4 pM and the “direct cAMP assay: inhibition of GIP-activated hGIPR signaling in CHO-DHFR cells stably expressing human GIPR (IC50)” value [3] is reported as 7.03 nM.

From patent US20220411520A1 (GMAX BIOPHARM, published 2022)
